From US20230331860A1 (Bristol-Myers Squibb, published 2023)

Experiments:
[1] = target: T1, human CD40 (human, UniProt P25942 21-193); test: direct binding of AF488-labeled antibody to CD20-positive B cells in human whole blood; n=4 donors (same result in mass units)
T1 construct: The SPR analyte is called 'monomeric human CD40'; also called monomeric human CD40

[2] = target: T2, hCD32a-H131 (human, UniProt P12318 36-218, limits assumed); test: FcγR binding, SPR (method per paragraph 74)
T2 construct: Position 131 is the customary allotype numbering; also called hCD32a/FcγRIIa, H131 variant
T2 sequence (looked up): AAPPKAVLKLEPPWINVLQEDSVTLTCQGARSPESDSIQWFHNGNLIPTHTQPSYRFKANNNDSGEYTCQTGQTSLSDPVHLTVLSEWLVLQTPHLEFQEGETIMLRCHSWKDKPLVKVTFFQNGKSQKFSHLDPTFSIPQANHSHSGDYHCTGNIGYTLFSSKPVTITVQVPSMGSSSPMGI

[3] = target: T3, hCD32a-R131 (human, UniProt P12318 36-218, limits assumed); test: FcγR binding, SPR (method per paragraph 74)
T3 construct: Position 131 is the customary allotype numbering; also called hCD32a/FcγRIIa, R131 variant
T3 sequence (looked up): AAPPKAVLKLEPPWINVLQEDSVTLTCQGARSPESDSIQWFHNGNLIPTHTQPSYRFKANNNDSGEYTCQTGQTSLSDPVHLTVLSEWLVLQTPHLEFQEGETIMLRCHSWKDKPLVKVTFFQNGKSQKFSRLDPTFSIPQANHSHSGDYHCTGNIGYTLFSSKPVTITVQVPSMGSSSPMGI

[4] = target: T4, hCD16a-V158 (human, UniProt P08637 17-208, limits assumed); test: FcγR binding, SPR (method per paragraph 74)
T4 construct: Position 158 is the customary allotype numbering; also called hCD16a/FcγRIIIa, V158 variant
T4 sequence (P08637 17-208 F176V limits assumed): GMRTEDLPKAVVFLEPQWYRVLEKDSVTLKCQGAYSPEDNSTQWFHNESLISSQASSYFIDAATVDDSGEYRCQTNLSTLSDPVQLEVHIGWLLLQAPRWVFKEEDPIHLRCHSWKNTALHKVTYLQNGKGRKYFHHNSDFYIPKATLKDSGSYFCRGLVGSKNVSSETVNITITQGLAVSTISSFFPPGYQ

[5] = target: T5, cyCD32a (cynomolgus monkey, UniProt A0A140HDN0 30-216); test: FcγR binding, SPR (method per paragraph 74)
T5 construct: also called cynomolgus CD32a
T5 sequence: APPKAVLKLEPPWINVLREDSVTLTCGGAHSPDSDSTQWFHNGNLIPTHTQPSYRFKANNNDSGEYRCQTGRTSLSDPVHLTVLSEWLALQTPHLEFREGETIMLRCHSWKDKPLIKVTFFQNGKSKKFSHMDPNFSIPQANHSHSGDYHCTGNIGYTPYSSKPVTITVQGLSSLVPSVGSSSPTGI

[6] = target: T6, hCD32b (human, UniProt P31994 43-217, limits assumed); test: FcγR binding, SPR (method per paragraph 74)
T6 construct: also called hCD32b/FcγRIIb
T6 sequence (looked up): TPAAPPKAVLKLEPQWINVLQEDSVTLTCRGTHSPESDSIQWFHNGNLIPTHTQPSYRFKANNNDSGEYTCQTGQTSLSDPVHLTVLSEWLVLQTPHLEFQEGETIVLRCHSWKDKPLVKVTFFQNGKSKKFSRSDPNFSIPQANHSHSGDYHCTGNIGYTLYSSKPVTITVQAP

[7] = target: T7, cyCD16 (cynomolgus monkey, UniProt Q8SPW2 17-208, limits assumed); test: FcγR binding, SPR (method per paragraph 74)
T7 construct: also called cynomolgus CD16
T7 sequence (Q8SPW2 17-208 limits assumed): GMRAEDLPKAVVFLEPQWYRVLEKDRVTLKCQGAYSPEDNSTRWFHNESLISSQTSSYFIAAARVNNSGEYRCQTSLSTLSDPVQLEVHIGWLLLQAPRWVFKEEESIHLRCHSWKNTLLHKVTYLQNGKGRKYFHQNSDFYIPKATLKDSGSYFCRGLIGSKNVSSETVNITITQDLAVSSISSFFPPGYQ

[8] = target: T8, cyCD32b (cynomolgus monkey, UniProt A0A140HDP4 43-217); test: FcγR binding, SPR (method per paragraph 74)
T8 construct: also called cynomolgus CD32b
T8 sequence: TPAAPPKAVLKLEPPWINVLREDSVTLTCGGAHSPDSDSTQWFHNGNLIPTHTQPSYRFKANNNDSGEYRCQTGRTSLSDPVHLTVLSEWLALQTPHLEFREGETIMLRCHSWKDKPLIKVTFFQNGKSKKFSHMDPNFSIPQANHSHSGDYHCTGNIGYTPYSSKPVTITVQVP

[9] = target: T9, hCD64 (human, UniProt P12314 16-288, limits assumed); test: FcγR binding, SPR (method per paragraph 74)
T9 construct: also called human CD64
T9 sequence (P12314 16-288 limits assumed): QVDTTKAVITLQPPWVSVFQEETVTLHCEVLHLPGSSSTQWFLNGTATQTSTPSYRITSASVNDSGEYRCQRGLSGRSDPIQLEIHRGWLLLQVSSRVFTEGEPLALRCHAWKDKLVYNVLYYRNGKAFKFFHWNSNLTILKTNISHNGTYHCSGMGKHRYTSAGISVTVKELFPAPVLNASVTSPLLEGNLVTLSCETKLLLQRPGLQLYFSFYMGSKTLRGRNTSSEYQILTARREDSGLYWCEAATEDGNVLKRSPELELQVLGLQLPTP

[10] = target: T10, hCD16a-F158 (human, UniProt P08637 17-208, limits assumed); test: FcγR binding, SPR (method per paragraph 74)
T10 construct: Position 158 is the customary allotype numbering; also called hCD16a/FcγRIIIa, F158 variant
T10 sequence (P08637 17-208 limits assumed): as the sequence (P08637 17-208 F176V limits assumed) above, with V160F counted along it

[11] = target: T1, human CD40; test: direct binding of AF488-labeled antibody to CD20-positive B cells in human whole blood; n=4 donors
[12] = target: T1, human CD40; test: SPR, antibody captured on protein A chip, monomeric CD40 as analyte
[13] = target: T11, cynomolgus CD40 (cynomolgus monkey, UniProt G7PG38 21-193); test: as above
T11 construct: also called monomeric cynomolgus CD40; monkey CD40 receptors

[14] = target: T9, hCD64; test: FcγR binding, SPR (method per paragraph 74); remark: listed apart in the source
[15] = target: T11, cynomolgus CD40; test: direct binding of AF488-labeled antibody to CD20-positive B cells in cynomolgus monkey whole blood; n=2 donors (same result in mass units)
[16] = target: T1, human CD40; test: cell-based or functional assay
[17] = target: T11, cynomolgus CD40; test: cell-based or functional assay
[18] = target: T11, cynomolgus CD40; test: binding to CD20-positive B cells in cynomolgus monkey whole blood, detected with secondary anti-human IgG1-PE; n=4 donors (same result in mass units)
[19] = target: T1, human CD40; test: cell-based or functional assay; parameters: IC50, suppression of CHO CD40L-induced IL-6 production by monocyte-derived DCs; n=4 donors (mass units as printed) / IC50, suppression of CHO CD40L-induced TNFα production by monocyte-derived DCs; n=4 donors (mass units as printed): unit not given beside the values
[20] = target: T11, cynomolgus CD40; test: binding to CD20-positive B cells in cynomolgus monkey whole blood, detected with secondary anti-human IgG1-PE; n=4 donors
[21] = target: T11, cynomolgus CD40; test: direct binding of AF488-labeled antibody to CD20-positive B cells in cynomolgus monkey whole blood; n=2 donors
[22] = target: T12, murine CD40 (murine, UniProt P27512 24-193, limits assumed); test: single-cycle kinetic SPR, CD40 on the surface
T12 construct: also called murine CD40 receptors
T12 sequence (looked up): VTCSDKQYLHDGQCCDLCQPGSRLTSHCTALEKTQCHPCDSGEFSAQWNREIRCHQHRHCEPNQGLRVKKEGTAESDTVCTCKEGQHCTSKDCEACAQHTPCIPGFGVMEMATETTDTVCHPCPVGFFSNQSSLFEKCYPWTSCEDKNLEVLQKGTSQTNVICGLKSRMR

T1 sequence (P25942 21-193 limits assumed): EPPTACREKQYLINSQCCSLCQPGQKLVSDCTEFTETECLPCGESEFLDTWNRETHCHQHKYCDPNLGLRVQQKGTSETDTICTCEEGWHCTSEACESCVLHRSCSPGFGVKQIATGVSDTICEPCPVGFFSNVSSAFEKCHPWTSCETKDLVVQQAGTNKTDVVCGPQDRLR

EC50 [1]: 0.13 µg/mL
binding result [2]: no binding
binding result [3]: no binding
binding result [4]: no binding
binding result [5]: no binding
binding result [6]: no binding
binding result [7]: no binding
binding result [8]: no binding
Kd [9]: 17 nM
binding result [10]: no binding
EC50 [11]: 0.9 nM
Kd [12]: 5.3 nM
koff [12]: 0.0012 s⁻¹
kon [12]: 230000 M⁻¹ s⁻¹
Kd [13]: 6.7 nM
koff [13]: 0.0016 s⁻¹
kon [13]: 240000 M⁻¹ s⁻¹
fold weaker binding than wild-type human IgG1 control [14]: 100 fold
EC50 [15]: 0.149 µg/mL
IC50, inhibition of CD54 upregulation on human B cells in whole blood stimulated by soluble CD40L trimer; n=10 donors [16]: 0.24 nM
IC50, inhibition of CD54 upregulation on human B cells in whole blood stimulated by soluble CD40L trimer; n=10 donors (mass units) [16]: 0.0346 µg/mL
IC50, inhibition of CD86 upregulation on human B cells in whole blood stimulated by soluble CD40L trimer; n=10 donors [16]: 0.24 nM
IC50, inhibition of CD86 upregulation on human B cells in whole blood stimulated by soluble CD40L trimer; n=10 donors (mass units) [16]: 0.0342 µg/mL
IC50, inhibition of human tonsillar B-cell proliferation stimulated by soluble CD40L trimer; n=10 donors [16]: 0.04 nM
IC50, inhibition of human tonsillar B-cell proliferation stimulated by soluble CD40L trimer; n=10 donors (mass units) [16]: 0.0056 µg/mL
IC50, inhibition of tonsillar B-cell proliferation stimulated by CD40L-expressing CHO cells; n=8 donors [16]: 0.28 nM
IC50, inhibition of tonsillar B-cell proliferation stimulated by CD40L-expressing CHO cells; n=8 donors (mass units) [16]: 0.0399 µg/mL
IC50, inhibition of CD86 upregulation on cynomolgus B cells in whole blood stimulated by soluble CD40L trimer; n=8 donors [17]: 0.25 nM
IC50, inhibition of CD86 upregulation on cynomolgus B cells in whole blood stimulated by soluble CD40L trimer; n=8 donors (mass units) [17]: 0.0364 µg/mL
IC50, inhibition of cynomolgus splenic B-cell proliferation driven by CD40L-expressing CHO cells; n=6 donors [17]: 4.5 nM
IC50, inhibition of cynomolgus splenic B-cell proliferation driven by CD40L-expressing CHO cells; n=6 donors (mass units) [17]: 0.65 µg/mL
IC50, inhibition of cynomolgus splenic B-cell proliferation driven by CD40L-trimer; n=6 donors [17]: 0.19 nM
IC50, inhibition of cynomolgus splenic B-cell proliferation driven by CD40L-trimer; n=6 donors (mass units) [17]: 0.0278 µg/mL
EC50 [18]: 0.106 µg/mL
IC50, suppression of CHO CD40L-induced IL-6 production by monocyte-derived DCs; n=4 donors [19]: 0.08 nM
IC50, suppression of CHO CD40L-induced IL-6 production by monocyte-derived DCs; n=4 donors (mass units as printed) [19]: 11.3
IC50, suppression of CHO CD40L-induced TNFα production by monocyte-derived DCs; n=4 donors [19]: 0.1 nM
IC50, suppression of CHO CD40L-induced TNFα production by monocyte-derived DCs; n=4 donors (mass units as printed) [19]: 13.3
EC50 [20]: 0.7 nM
EC50 [21]: 1 nM
binding result [22]: no binding
B1: BMS-986325 (antibody, human IgG1, kappa)
heavy: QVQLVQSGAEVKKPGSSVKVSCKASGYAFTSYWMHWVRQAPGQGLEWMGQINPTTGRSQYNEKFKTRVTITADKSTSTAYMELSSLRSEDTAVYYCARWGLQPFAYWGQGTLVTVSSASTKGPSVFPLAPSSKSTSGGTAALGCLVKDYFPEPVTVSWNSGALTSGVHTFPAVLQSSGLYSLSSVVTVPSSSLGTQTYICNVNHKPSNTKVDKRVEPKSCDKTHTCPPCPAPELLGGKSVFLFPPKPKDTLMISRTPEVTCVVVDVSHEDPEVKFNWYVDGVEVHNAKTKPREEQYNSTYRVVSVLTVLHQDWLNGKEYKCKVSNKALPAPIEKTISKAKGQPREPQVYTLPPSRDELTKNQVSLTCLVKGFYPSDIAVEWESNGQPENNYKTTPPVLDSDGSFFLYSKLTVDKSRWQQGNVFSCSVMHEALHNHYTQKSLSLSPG
light: DIQMTQSPSFLSASVGDRVTITCKASQDVSTAVAWYQQKPGKAPKLLIYSASYRYTGVPSRFSGSGSGTDFTLTISSLQPEDFATYYCQQHYSTPWTFGGGTKVEIKRTVAAPSVFIFPPSDEQLKSGTASVVCLLNNFYPREAKVQWKVDNALQSGNSQESVTEQDSKDSTYSLSSTLTLSKADYEKHKVYACEVTHQGLSSPVTKSFNRGEC
notes: also called Y12XX-hz28-P238K; Y12XX-hz28 (Vh-hz14)
